“And” between values parts separate entries of the source, which are not always exact repeats. Equal values may be shown once. Read-outs that look alike come from different tables or passages of the source. Marks after values point to notes of the source that are not given here.
Columns and labels:
[1] = Activity of crude culture supernatants from bioreactor; format: biochemical; conditions: pNP-dodecanoate
[2] = Stability in the presence of hydrogen peroxide; format: physicochemical
How it was run: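 Purified cutinases held at room temperature with 0, 30, 100, 300, 1500 or 3000 ppm H2O2; residual esterase activity assayed after 1, 2, 3 and 7 days. Activity read as pNP release at 410 nm from pNP-esters (0.8 mM final) in 50 mM Tris/HCl pH 8.0; U = 1 μmol pNP/min, ε 15 mM^−1 cm^−1.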

[3] = Specific activity of purified enzymes (standard esterase assay); format: biochemical
How it was run: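 Purified enzymes tested on pNP-esters, including pNP-palmitate, at 0.8 mM final in 50 mM Tris/HCl pH 8.0 (substrate predissolved in 2-propanol). p-Nitrophenol release followed at 410 nm (ε 15 mM^−1 cm^−1); 1 U = 1 μmol pNP/min, specific activity given as U/mg protein.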

[4] = format: biochemical, Petromyces albertensis; conditions: for Residual ochratoxin A (%): 5 ppm Ochratoxin A, 37° C., relative to incubation without enzyme
[5] = Enzyme substrate profiles, esterase assays; format: biochemical; conditions: highest activity towards a specific substrate set to 100%
How it was run: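 Hydrolysis of pNP-ester substrates, final 0.8 mM (from 8 mM 2-propanol stock), in 50 mM Tris/HCl pH 8.0, followed as pNP release at 410 nm (ε 15 mM^−1 cm^−1). One U = 1 μmol pNP/min; specific activity as U/mg protein.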

[6] = Enzymatic activity in the presence of organic solvents; format: biochemical; conditions: buffer only = 100%
Procedure: Enzyme activity in various organic solvents was studied over a concentration range of 1-30% at room temperature. pNP-palmitate was completely dissolved in 2-propanol (8 mM) and then added to 50 mM Tris/HCl buffer pH 8.0 containing up to 30% organic solvent to give a final substrate concentration of 0.8 mM. The reaction was started by addition of enzyme and the formation of pNP was assayed as described above in Example 20.1.

[7] = Temperature optimum; format: biochemical; conditions: for Relative activity at temperature: highest activity set to 100%
Procedure: For estimation of the temperature optimum, buffer containing pNP-palmitate (see esterase assay in Example 20.1) was pre-incubated to reach the desired temperature, enzyme was then added, and the formation of pNP was assayed. For this experiment, Tris/HCl buffer was replaced with sodium phosphate buffer (50 mM, pH 8.0) to avoid a pH shift at the different temperatures.

[8] = pH dependence of enzymes; format: biochemical; conditions: for Relative activity (%): highest activity = 100%
Procedure: The influence of different pH values (from 5.5 to 11) on the activities of the purified enzymes was examined in three buffer systems (sodium acetate, sodium phosphate, and Tris-HCl) at room temperature using pNP-palmitate (see esterase assay in Example 20.1) as a substrate at a final substrate concentration of 0.8 mM.

B1: Cf-TP: chimeric variant: catalytic and polymer binding domains of CfCUT with T/P-rich linker domain of KrCUT, SEQ ID NO: 29 (protein)
chain: APACPDVELVFARGTGEAAGLGIVGRPLERALAAELPGRTVVATAVDYAASSSQASAGPGSGDMVAKVRSRAAACPGTQFVLGGYSQGATVTDLALGIRTGVTAGTALPEDLAARVAAVVVYGNPLGLTRRTIAQAAPAFATRTVEYCNAGDPVCEPGGGRFTAHITYATNGTVLEGARFAAARVTAAGTPTTPTPTPTPTPVPTTCVTASSLQHVRDGRAYPLWMRTYARGSGDPLGVLSSRTVVSLQADGTDTWRKVAAC
modifications: YebF carrier; Cf-TP variant
[1]
  activity of crude culture supernatant: 0.6 U/mL
[2]; H2O2 30 ppm, Day 0
  Relative activity (%) after exposure to hydrogen peroxide: 97 ± 1%
[2]; H2O2 30 ppm, Day 1
  Relative activity (%) after exposure to hydrogen peroxide: 89 ± 4%
[2]; H2O2 30 ppm, Day 2
  Relative activity (%) after exposure to hydrogen peroxide: 78 ± 3%
[2]; H2O2 30 ppm, Day 3
  Relative activity (%) after exposure to hydrogen peroxide: 86 ± 2%
[2]; H2O2 30 ppm, Day 7
  Relative activity (%) after exposure to hydrogen peroxide: 65 ± 7%
[2]; H2O2 100 ppm, Day 0
  Relative activity (%) after exposure to hydrogen peroxide: 98 ± 6%
[2]; H2O2 100 ppm, Day 1
  Relative activity (%) after exposure to hydrogen peroxide: 91 ± 3%
[2]; H2O2 100 ppm, Day 2
  Relative activity (%) after exposure to hydrogen peroxide: 89 ± 7%
[2]; H2O2 100 ppm, Day 3
  Relative activity (%) after exposure to hydrogen peroxide: 94 ± 7%
[2]; H2O2 100 ppm, Day 7
  Relative activity (%) after exposure to hydrogen peroxide: 74 ± 6%
[2]; H2O2 300 ppm, Day 0
  Relative activity (%) after exposure to hydrogen peroxide: 95 ± 6%
[2]; H2O2 300 ppm, Day 1
  Relative activity (%) after exposure to hydrogen peroxide: 88 ± 3%
[2]; H2O2 300 ppm, Day 2
  Relative activity (%) after exposure to hydrogen peroxide: 85 ± 12%
[2]; H2O2 300 ppm, Day 3
  Relative activity (%) after exposure to hydrogen peroxide: 98 ± 3%
[2]; H2O2 300 ppm, Day 7
  Relative activity (%) after exposure to hydrogen peroxide: 77 ± 5%
[2]; H2O2 1,500 ppm, Day 0
  Relative activity (%) after exposure to hydrogen peroxide: 95 ± 9%
[2]; H2O2 1,500 ppm, Day 1
  Relative activity (%) after exposure to hydrogen peroxide: 89 ± 3%
[2]; H2O2 1,500 ppm, Day 2
  Relative activity (%) after exposure to hydrogen peroxide: 88 ± 6%
[2]; H2O2 1,500 ppm, Day 3
  Relative activity (%) after exposure to hydrogen peroxide: 87 ± 4%
[2]; H2O2 1,500 ppm, Day 7
  Relative activity (%) after exposure to hydrogen peroxide: 68 ± 7%
[2]; H2O2 3,000 ppm, Day 0
  Relative activity (%) after exposure to hydrogen peroxide: 80% and 80 ± 2%
[2]; H2O2 3,000 ppm, Day 1
  Relative activity (%) after exposure to hydrogen peroxide: 74 ± 5%
[2]; H2O2 3,000 ppm, Day 2
  Relative activity (%) after exposure to hydrogen peroxide: 77 ± 2%
[2]; H2O2 3,000 ppm, Day 3
  Relative activity (%) after exposure to hydrogen peroxide: 78 ± 5%
[2]; H2O2 3,000 ppm, Day 7
  Relative activity (%) after exposure to hydrogen peroxide: 57% and 57 ± 5%
[3]; pNP-palmitate
  Enzymatic activity of the purified variant: 30 ± 2 U/mg
[3]; towards pNP-palmitate (standard assay)
  Spec. Act. (U/mg): 30 ± 2 U/mg
[4]; 1 h
  Residual ochratoxin A (%): 5%
[4]; 4 h
  Residual ochratoxin A (%): 0%
[4]; 24 h
  Residual ochratoxin A (%): 0%
[4]; after 4 hours
  Ochratoxin A degraded: 100%
[4]; per 1 U of enzyme (pNP standard test) and hour at 37° C.
  Ochratoxin A Degradation per U and h: 98 µmol
[5]
  Relative activity, pNP-acetate (C2): 5%
  Relative activity, pNP-butyrate (C4): 80 ± 3%
  Relative activity, pNP-caprylate (C8): 33 ± 1%
  Relative activity, pNP-decanoate (C10): 66 ± 8%
  Relative activity, pNP-myristate (C14): 40 ± 4%
  Relative activity, pNP-palmitate (C16): 100* %
[6]; 2-Propanol 5% (v/v)
  Relative enzymatic activity (%): 93 ± 1%
[6]; 2-Propanol 10% (v/v)
  Relative enzymatic activity (%): 92 ± 2%
[6]; Acetone 1% (v/v)
  Relative enzymatic activity (%): 103 ± 12%
[6]; Acetone 5% (v/v)
  Relative enzymatic activity (%): 112 ± 10%
[6]; Acetone 10% (v/v)
  Relative enzymatic activity (%): 109 ± 6%
[6]; Dimethyl sulfoxide (DMSO) 10% (v/v)
  Relative enzymatic activity (%): 150 ± 14%
[6]; Dimethyl sulfoxide (DMSO) 20% (v/v)
  Relative enzymatic activity (%): 146 ± 23%
[6]; Dimethyl sulfoxide (DMSO) 30% (v/v)
  Relative enzymatic activity (%): 129 ± 18%
[6]; Dimethylformamide (DMF) 5% (v/v)
  Relative enzymatic activity (%): 134 ± 10%
[6]; Methanol 10% (v/v)
  Relative enzymatic activity (%): 121 ± 14%
[6]; Methanol 20% (v/v)
  Relative enzymatic activity (%): 94 ± 1%
[7]
  Temp. opt. (° C.): 35 °C
[7]; 20 ° C.
  Relative activity at temperature: 54 ± 5%
[7]; 25 ° C.
  Relative activity at temperature: 84 ± 9%
[7]; 30 ° C.
  Relative activity at temperature: 95 ± 5%
[7]; 35 ° C.
  Relative activity at temperature: 100* %
[7]; 40 ° C.
  Relative activity at temperature: 89 ± 6%
[7]; 45 ° C.
  Relative activity at temperature: 72 ± 7%
[7]; 50 ° C.
  Relative activity at temperature: 37 ± 6%
[7]; 55 ° C.
  Relative activity at temperature: 9 ± 1%
[8]
  pH opt.: 9.5
[8]; pH 6.5, sodium phosphate buffer
  Relative activity (%): 12 ± 1%
[8]; pH 7.0, sodium phosphate buffer
  Relative activity (%): 22 ± 1%
[8]; pH 7.5, sodium phosphate buffer
  Relative activity (%): 36 ± 1%
[8]; pH 8.0, Tris/HCl
  Relative activity (%): 65 ± 7%
[8]; pH 8.5, Tris/HCl
  Relative activity (%): 88 ± 8%
[8]; pH 9.0, Tris/HCl
  Relative activity (%): 95 ± 3%
[8]; pH 9.5, Tris/HCl
  Relative activity (%): 100* %
[8]; pH 10, Tris/HCl
  Relative activity (%): 35 ± 4%

— US10227575B2, “Multi-domain enzymes having cutinase activity, compositions comprising same and uses thereof” (OZYMES, priority 2015, dated 2019)
